In publication PMC3701795, “Heterologous expression and characterization of a malathion-hydrolyzing carboxylesterase from a thermophilic bacterium, Alicyclobacillus tengchongensis” (Biotechnology Letters, 2013):

Tested on: CC(=O)Oc1ccc2ccccc2c1
Assay: purified protein
Details: pH 7 potassium phosphate, 60 °C, 0.1-0.95 mM substrate

Substance: D1CarE5 (Alicyclobacillus sp. D-1)
- Km: 1000 µM
